Reference: IntAct's records for PubMed 12502741

B1: Retinoblastoma-associated protein (Homo sapiens), P06400 (parent)
chain: MPPKTPRKTAATAAAAAAEPPAPPPPPPPEEDPEQDSGPEDLPLVRLEFEETEEPDFTALCQKLKIPDHVRERAWLTWEKVSSVDGVLGGYIQKKKELWGICIFIAAVDLDEMSFTFTELQKNIEISVHKFFNLLKEIDTSTKVDNAMSRLLKKYDVLFALFSKLERTCELIYLTQPSSSISTEINSALVLKVSWITFLLAKGEVLQMEDDLVISFQLMLCVLDYFIKLSPPMLLKEPYKTAVIPINGSPRTPRRGQNRSARIAKQLENDTRIIEVLCKEHECNIDEVKNVYFKNFIPFMNSLGLVTSNGLPEVENLSKRYEEIYLKNKDLDARLFLDHDKTLQTDSIDSFETQRTPRKSNLDEEVNVIPPHTPVRTVMNTIQQLMMILNSASDQPSENLISYFNNCTVNPKESILKRVKDIGYIFKEKFAKAVGQGCVEIGSQRYKLGVRLYYRVMESMLKSEEERLSIQNFSKLLNDNIFHMSLLACALEVVMATYSRSTSQNLDSGTDLSFPWILNVLNLKAFDFYKVIESFIKAEGNLTREMIKHLERCEHRIMESLAWLSDSPLFDLIKQSKDREGPTDHLESACPLNLPLQNNHTAADMYLSPVRSPKKKGSTTRVNSTANAETQATSAFQTQKPLKSTSLSLFYKKVYRLAYLRLNTLCERLLSEHPELEHIIWTLFQHTLQNEYELMRDRHLDQIMMCSMYGICKVKNIDLKFKIIVTAYKDLPHAVQETFKRVLIKEEEYDSIIVFYNSVFMQRLKTNILQYASTRPPTLSPIPHIPRSPYKFPSSPLRIPGGNIYISPLKSPYKISEGLPTPTKMTPRSRILVSIGESFGTSEKFQKINQMVCNSDRVLKRSAEGSNPPKPLKKLRFDIEGSDEADGSKHLPGESKFQQKLAEMTSTRTRMQKQKMNDSMDTSNKEEK

Variants of: B1
Conditions: with e2f1_human E2F1, Q01094
Sequence of e2f1_human E2F1, Q01094 (Q01094 whole entry): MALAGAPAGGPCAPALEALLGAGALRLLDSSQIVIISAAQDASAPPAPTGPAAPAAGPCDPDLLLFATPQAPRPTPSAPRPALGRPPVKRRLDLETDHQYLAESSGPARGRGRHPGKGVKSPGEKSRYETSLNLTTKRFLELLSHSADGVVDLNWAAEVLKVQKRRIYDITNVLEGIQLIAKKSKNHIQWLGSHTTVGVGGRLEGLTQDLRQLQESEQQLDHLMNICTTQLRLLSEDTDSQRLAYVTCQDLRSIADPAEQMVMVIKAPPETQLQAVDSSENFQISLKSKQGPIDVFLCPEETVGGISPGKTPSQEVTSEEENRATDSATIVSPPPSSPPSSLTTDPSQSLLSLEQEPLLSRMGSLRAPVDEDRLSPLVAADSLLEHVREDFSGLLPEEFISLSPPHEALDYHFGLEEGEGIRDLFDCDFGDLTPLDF

| effect of a mutation on the interaction | Variant |
| --- | --- |
| decreasing interaction strength | K653A |
| decreasing interaction strength | R467A |
| decreasing interaction strength | F482A |
| decreasing interaction strength | E554A |
